Source: patent US10941182 (Amgen, dated 2021)
Starred links: 1 amine or outer side, 2 acyl side, 3 side chain; linkers in the order of their positions; H or OH if unused. Non-standard residues stand in square brackets, D forms with d. Primed or numbered codes have the meaning given here. *: point of attachment. AC4Abu = α-carboxy-4-aminobutyric acid, O=C(C(CCN[*:1])C(=O)[*:3])[*:2]; Oic = O=C(O)[C@@H]1C[C@@H]2CCCC[C@@H]2N1; Phe(4-Cl) = N[C@@H](Cc1ccc(Cl)cc1)C(=O)O; dPhe(4-Cl) = N[C@H](Cc1ccc(Cl)cc1)C(=O)O; γGlu = O=C(O)[C@H](CCC(=O)[*:2])N[*:1]; NMeR = CN[C@@H](CCCNC(=N)N)C(=O)O; Palmitoyl = CCCCCCCCCCCCCCCC(=O)*; αMeF = C[C@](N)(Cc1ccccc1)C(=O)O; Cha = N[C@@H](CC1CCCCC1)C(=O)O; αMeP = C[C@@]1(C(=O)O)CCCN1; β3hP = O=C(O)C[C@@H]1CCCN1; Ac6c = NC1(C(=O)O)CCCCC1; Nle = CCCC[C@H](N)C(=O)O; Ac5c = NC1(C(=O)O)CCCC1; Pip′ = not defined here; AEEA = NCCOCCOCC(=O)O; Aib = CC(C)(N)C(=O)O; Inp = O=C(O)C1CCNCC1; Nip = nipecotic acid

T1: rat APJ receptor (rat, UniProt Q9JHG3 1-377)
T1 sequence (looked up): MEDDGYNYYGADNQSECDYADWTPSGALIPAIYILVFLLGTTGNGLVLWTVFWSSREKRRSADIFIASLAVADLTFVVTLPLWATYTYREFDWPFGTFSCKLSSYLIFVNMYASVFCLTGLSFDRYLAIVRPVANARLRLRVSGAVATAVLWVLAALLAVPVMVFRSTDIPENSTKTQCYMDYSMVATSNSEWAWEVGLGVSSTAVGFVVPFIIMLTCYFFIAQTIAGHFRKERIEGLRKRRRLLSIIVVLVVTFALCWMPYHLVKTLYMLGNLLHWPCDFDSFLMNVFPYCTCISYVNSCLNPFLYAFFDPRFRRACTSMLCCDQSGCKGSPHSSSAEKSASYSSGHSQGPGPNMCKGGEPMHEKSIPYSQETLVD

T2: human APJ receptor (human, UniProt P35414 1-380)
T2 sequence (looked up): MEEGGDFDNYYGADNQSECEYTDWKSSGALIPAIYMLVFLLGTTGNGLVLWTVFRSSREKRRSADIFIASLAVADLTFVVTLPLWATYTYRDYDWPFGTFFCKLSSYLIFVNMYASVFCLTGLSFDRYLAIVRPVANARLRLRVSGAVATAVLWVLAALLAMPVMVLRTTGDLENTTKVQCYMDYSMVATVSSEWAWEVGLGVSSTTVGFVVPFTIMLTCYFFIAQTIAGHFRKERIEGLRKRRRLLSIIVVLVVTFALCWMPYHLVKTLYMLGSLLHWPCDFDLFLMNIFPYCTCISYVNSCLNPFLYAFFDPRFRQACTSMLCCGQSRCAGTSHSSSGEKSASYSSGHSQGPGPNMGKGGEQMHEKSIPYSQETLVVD


How the values were obtained:
[1] = biological target: T1, rat APJ receptor; test: cell-based or functional assay
[2] = biological target: T2, human APJ receptor; test: cell-based or functional assay

Binder	EC50 Rat APJ Receptor [1]	EC50 Human APJ Receptor [2]
Palmitoyl-[γGlu][AEEA][AEEA][dQ]RP[NMeR][Cha]SHKG[Oic][Nle][Aib][dPhe(4-Cl)]-OH (SMILES CCCCCCCCCCCCCCCC(=O)N[C@@H](CCC(=O)NCCOCCOCC(=O)NCCOCCOCC(=O)N[C@H](CCC(N)=O)C(=O)N[C@@H](CCCNC(=N)N)C(=O)N1CCC[C@H]1C(=O)N(C)[C@@H](CCCNC(=N)N)C(=O)N[C@@H](CC1CCCCC1)C(=O)N[C@@H](CO)C(=O)N[C@@H](Cc1c[nH]cn1)C(=O)N[C@@H](CCCCN)C(=O)NCC(=O)N1[C@H](C(=O)N[C@@H](CCCC)C(=O)NC(C)(C)C(=O)N[C@H](Cc2ccc(Cl)cc2)C(=O)O)C[C@@H]2CCCC[C@@H]21)C(=O)O) [SEQ ID NO: 604]	0.512 nM	0.423 nM
Palmitoyl-[AC4Abu][AEEA][AEEA][dQ]RP[NMeR][Cha]SHKG[Oic][Nle][Ac5c][Phe(4-Cl)]-OH (SMILES CCCCCCCCCCCCCCCC(=O)NCCC(C(=O)O)C(=O)NCCOCCOCC(=O)NCCOCCOCC(=O)N[C@H](CCC(N)=O)C(=O)N[C@@H](CCCNC(=N)N)C(=O)N1CCC[C@H]1C(=O)N(C)[C@@H](CCCNC(=N)N)C(=O)N[C@@H](CC1CCCCC1)C(=O)N[C@@H](CO)C(=O)N[C@@H](Cc1c[nH]cn1)C(=O)N[C@@H](CCCCN)C(=O)NCC(=O)N1[C@H](C(=O)N[C@@H](CCCC)C(=O)NC2(C(=O)N[C@@H](Cc3ccc(Cl)cc3)C(=O)O)CCCC2)C[C@@H]2CCCC[C@@H]21) [SEQ ID NO: 585]	22.3 nM	6.73 nM
Palmitoyl-[γGlu][AEEA][AEEA][dQ]RP[NMeR][Cha]SHKG[Oic][Nle][αMeP][αMeF]-OH (SMILES CCCCCCCCCCCCCCCC(=O)N[C@@H](CCC(=O)NCCOCCOCC(=O)NCCOCCOCC(=O)N[C@H](CCC(N)=O)C(=O)N[C@@H](CCCNC(=N)N)C(=O)N1CCC[C@H]1C(=O)N(C)[C@@H](CCCNC(=N)N)C(=O)N[C@@H](CC1CCCCC1)C(=O)N[C@@H](CO)C(=O)N[C@@H](Cc1c[nH]cn1)C(=O)N[C@@H](CCCCN)C(=O)NCC(=O)N1[C@H](C(=O)N[C@@H](CCCC)C(=O)N2CCC[C@@]2(C)C(=O)N[C@@](C)(Cc2ccccc2)C(=O)O)C[C@@H]2CCCC[C@@H]21)C(=O)O) [SEQ ID NO: 610]	4.98 nM	1.06 nM
Palmitoyl-[γGlu][AEEA][AEEA][dQ]RP[NMeR][Cha]SHKG[Oic][Nle][Pip′][αMeF]-OH [SEQ ID NO: 609]	2.49 nM	1.25 nM
Palmitoyl-[AC4Abu][AEEA][AEEA][dQ]RP[NMeR][Cha]SHKG[Oic][Nle][Nip][Phe(4-Cl)]-OH [SEQ ID NO: 586]	23 nM	7.96 nM
Palmitoyl-[γGlu][AEEA][AEEA][dQ]RP[NMeR][Cha]SHKG[Oic][Nle][β3hP][αMeF]-OH (SMILES CCCCCCCCCCCCCCCC(=O)N[C@@H](CCC(=O)NCCOCCOCC(=O)NCCOCCOCC(=O)N[C@H](CCC(N)=O)C(=O)N[C@@H](CCCNC(=N)N)C(=O)N1CCC[C@H]1C(=O)N(C)[C@@H](CCCNC(=N)N)C(=O)N[C@@H](CC1CCCCC1)C(=O)N[C@@H](CO)C(=O)N[C@@H](Cc1c[nH]cn1)C(=O)N[C@@H](CCCCN)C(=O)NCC(=O)N1[C@H](C(=O)N[C@@H](CCCC)C(=O)N2CCC[C@H]2CC(=O)N[C@@](C)(Cc2ccccc2)C(=O)O)C[C@@H]2CCCC[C@@H]21)C(=O)O) [SEQ ID NO: 611]	1.57 nM	0.722 nM
Palmitoyl-[γGlu][AEEA][AEEA][dQ]RP[NMeR][Cha]SHKG[Oic][Nle][Pip′][dPhe(4-Cl)]-OH [SEQ ID NO: 601]	3.25 nM	3.44 nM
Palmitoyl-[γGlu][AEEA][AEEA][dQ]RP[NMeR][Cha]SHKG[Oic][Nle][β3hP][dAMF]-OH [SEQ ID NO: 612]	4.62 nM	1.72 nM
Palmitoyl-[AC4Abu][AEEA][AEEA][dQ]RP[NMeR][Cha]SHKG[Oic][Nle][Inp][Phe(4-Cl)]-OH (SMILES CCCCCCCCCCCCCCCC(=O)NCCC(C(=O)O)C(=O)NCCOCCOCC(=O)NCCOCCOCC(=O)N[C@H](CCC(N)=O)C(=O)N[C@@H](CCCNC(=N)N)C(=O)N1CCC[C@H]1C(=O)N(C)[C@@H](CCCNC(=N)N)C(=O)N[C@@H](CC1CCCCC1)C(=O)N[C@@H](CO)C(=O)N[C@@H](Cc1c[nH]cn1)C(=O)N[C@@H](CCCCN)C(=O)NCC(=O)N1[C@H](C(=O)N[C@@H](CCCC)C(=O)N2CCC(C(=O)N[C@@H](Cc3ccc(Cl)cc3)C(=O)O)CC2)C[C@@H]2CCCC[C@@H]21) [SEQ ID NO: 587]	3.58 nM	1.29 nM
Palmitoyl-[AC4Abu][AEEA][AEEA][dQ]RP[NMeR][Cha]SHKG[Oic][Nle][Ac6c][Phe(4-Cl)]-OH (SMILES CCCCCCCCCCCCCCCC(=O)NCCC(C(=O)O)C(=O)NCCOCCOCC(=O)NCCOCCOCC(=O)N[C@H](CCC(N)=O)C(=O)N[C@@H](CCCNC(=N)N)C(=O)N1CCC[C@H]1C(=O)N(C)[C@@H](CCCNC(=N)N)C(=O)N[C@@H](CC1CCCCC1)C(=O)N[C@@H](CO)C(=O)N[C@@H](Cc1c[nH]cn1)C(=O)N[C@@H](CCCCN)C(=O)NCC(=O)N1[C@H](C(=O)N[C@@H](CCCC)C(=O)NC2(C(=O)N[C@@H](Cc3ccc(Cl)cc3)C(=O)O)CCCCC2)C[C@@H]2CCCC[C@@H]21) [SEQ ID NO: 584]	52.2 nM	22.9 nM
Palmitoyl-[γGlu][AEEA][AEEA][dQ]RP[NMeR][Cha]SHKG[Oic][Nle][Inp][dPhe(4-Cl)]-OH (SMILES CCCCCCCCCCCCCCCC(=O)N[C@@H](CCC(=O)NCCOCCOCC(=O)NCCOCCOCC(=O)N[C@H](CCC(N)=O)C(=O)N[C@@H](CCCNC(=N)N)C(=O)N1CCC[C@H]1C(=O)N(C)[C@@H](CCCNC(=N)N)C(=O)N[C@@H](CC1CCCCC1)C(=O)N[C@@H](CO)C(=O)N[C@@H](Cc1c[nH]cn1)C(=O)N[C@@H](CCCCN)C(=O)NCC(=O)N1[C@H](C(=O)N[C@@H](CCCC)C(=O)N2CCC(C(=O)N[C@H](Cc3ccc(Cl)cc3)C(=O)O)CC2)C[C@@H]2CCCC[C@@H]21)C(=O)O) [SEQ ID NO: 603]	32.3 nM	2.96 nM
Palmitoyl-[γGlu][AEEA][AEEA][dQ]RP[NMeR][Cha]SHKG[Oic][Nle][Nip][dPhe(4-Cl)]-OH [SEQ ID NO: 602]	25.6 nM	5.48 nM
Palmitoyl-[γGlu][AEEA][AEEA][dQ]RP[NMeR][Cha]SHKG[Oic][Nle]P[dAMF]-OH [SEQ ID NO: 607]	0.55 nM	0.0956 nM
Palmitoyl-[γGlu][AEEA][AEEA][dQ]RP[NMeR][Cha]SHKG[Oic][Nle][Aib][αMeF]-OH (SMILES CCCCCCCCCCCCCCCC(=O)N[C@@H](CCC(=O)NCCOCCOCC(=O)NCCOCCOCC(=O)N[C@H](CCC(N)=O)C(=O)N[C@@H](CCCNC(=N)N)C(=O)N1CCC[C@H]1C(=O)N(C)[C@@H](CCCNC(=N)N)C(=O)N[C@@H](CC1CCCCC1)C(=O)N[C@@H](CO)C(=O)N[C@@H](Cc1c[nH]cn1)C(=O)N[C@@H](CCCCN)C(=O)NCC(=O)N1[C@H](C(=O)N[C@@H](CCCC)C(=O)NC(C)(C)C(=O)N[C@@](C)(Cc2ccccc2)C(=O)O)C[C@@H]2CCCC[C@@H]21)C(=O)O) [SEQ ID NO: 608]	0.326 nM	0.214 nM
Palmitoyl-[γGlu][AEEA][AEEA][dQ]RP[NMeR][Cha]SHKG[Oic][Nle][β3hP][dPhe(4-Cl)]-OH (SMILES CCCCCCCCCCCCCCCC(=O)N[C@@H](CCC(=O)NCCOCCOCC(=O)NCCOCCOCC(=O)N[C@H](CCC(N)=O)C(=O)N[C@@H](CCCNC(=N)N)C(=O)N1CCC[C@H]1C(=O)N(C)[C@@H](CCCNC(=N)N)C(=O)N[C@@H](CC1CCCCC1)C(=O)N[C@@H](CO)C(=O)N[C@@H](Cc1c[nH]cn1)C(=O)N[C@@H](CCCCN)C(=O)NCC(=O)N1[C@H](C(=O)N[C@@H](CCCC)C(=O)N2CCC[C@H]2CC(=O)N[C@H](Cc2ccc(Cl)cc2)C(=O)O)C[C@@H]2CCCC[C@@H]21)C(=O)O) [SEQ ID NO: 600]	4.46 nM	1.66 nM
